The results in this text go back to the DeepSol protein solubility set.

This data set is described as follows: soluble on expression in E. coli; label from the status in PepcDB or PDB records.
“MKPVFLDFEQPIAELTNKIDELRFVQDESAVDISDEIHRLQKKSNDLTKSIFSKLTPAQISQVSRHPQRPYTLDYIEALFTDFEELHGDRHFADDYAIVGGLARFNGQSVMVVGHQKGRDTKEKIRRNFGMPRPEGYRKALRLMKTAEKFGLPVMTFIDTPGAYPGIGAEERGQSEAIGKNLYELTRLRVPVLCTVIGEGGSGGALAVALGDYVNMLQYSTYSVISPEGCASILWKTAEKAADAAQALGITADRLQKLDLVDTVIKEPLGGAHRDFGQTMKNVKAVLEKQLHEAQSIPLADLLSRRFDRIMAYGKFSEQ”: the “soluble on expression in E. coli” value is reported as “not soluble”.
With “MGSDKIHHHHHHMFISDLHIGDGSAKDDFFFDKELVNFIEDMSQTEDVELFVVGDGFEILESRTVKEIGLVSFEEVVETLDETVIDEIEKKHSEVFETLKKFSRRHRVYYVVGNHDYHILKNKKLQNALKNRFEKFEILPYYYDPHSKLLVLHGNQFDVINRFTVDRKTKKVIPPLGDYIARYMMINFDSQVVNFAPEDVIRDYDNVRPLLDVFHWFDYVTEIYDLSVDLVELWLKSFLSMLKTREARKWMKNNFPRTHWLSKVFVNRFGGVELGKVLVRSIYTLRKLRRVDYLQKWAKSILKGNLRWKEFMTGYSGDLHEVEEVDILVMGHVHHFAYRIVPTTQGKKLYVNCGSWRPVLEKLGIRKRHGFHRKAELPKIIMDFSGKNVEVKASITNVLGKIQGGDL”, the “soluble on expression in E. coli” value was “not soluble”.
Next, “MGSDKIHHHHHHMKILVVGAGAVGGYFGARLAEKGEDVTFLVRERRFEELRAGLQVKSLHGDITCSPRLIRTGEKGTFDVILLSTKAYHLEQVLEDIEPFVATDTYILPLLNGMAHLKQLEQHFGAERVLGGLCFIESTLDGKGHIVQTSPSHHLLFGPLPGTRTDRLEELKQHLTGTAAPINYSDTITRDMWNKYLFITTFSGVTSLFRSAIGPIRSQEEGMMMIRRLATEAKEAMERQGAVFSDGIEQIQQQQIAQMDETMKSSLQRDMEKGNEVESAHLFGTLLSKDEATQVMLPAIYANLKIYRMSRKDV”: “not soluble”; “MGSDKIHHHHHHVSPSILGQGEVEQLLTGTYRSLQNDPGRDTWVLFDMRGENLINTYLSGSNDFVNNEIPSNNGTLLTMWRGYYKAIYNANTTLSILSNLEPSEKNTHIEAQARFLRAYAYYCLATRWDGVPIIKDNTLENVKRDKQSAVFNFIKEELSFCIDEGHLKPFGETSGAPFTVSLEAAQALMARLALTTGDMETAKNMAETLIANPKFKLSENYDNIFTTTNNSEIIFSFRNNTSEGGQNLYALFTTYNSPMKGSWFLCPSPESEKLFEDPADTRNNTCITTLESVSETYIIMNKFRDFTPLIVSRIAEMYLISAEAQGRNGLNRLNELRRSRGLNPYNNSDIASEEDYQKKVALERRKELYCEGFLFFDLIRTNKISEEVVSMNGKTNLYLPLPESEVQYNPNLNEYN”: “not soluble”; “MGSDKIHHHHHHKSVHPYWSQVEQGVKAAGKALGVDTKFFVPQKEDINAQLQMLESFIAEGVNGIAIAPSDPTAVIPTIKKALEMGIPVVTLDTDSPDSGRYVYIGTDNYQAGYTAGLIMKELLGGKGKVVIGTGSLTAMNSLQRIQGFKDAIKDSEIEIVDILNDEEDGARAVSLAEAALNAHPDLDAFFGVYAYNGPAQALVVKNAGKVGKVKIVCFDTTPDILQYVKEGVIQATMGQRPYMMGYLSVTVLYLMNKIGVQNTLMMLPKVKVDGKVDYVIDTGVDVVTPENLDEYLKKMEELGIPIKF”: “not soluble”.
Then “MGSDKIHHHHHHMPVFYPAVQGSLPMGGQESLPLRRLKSFQPLGRLTDDQLVLLASRAERRTHGPGQRVMERGVRDGLDYFLISGAVELQSVDGRKSTIEAETDKALNPVARLQPRMYDVTAVKPCEFLVIEQEVLNQMLRAAPISQVEMDSSDHDEDQSEEHHLLMEFYSELRSNQVQLPSVPDVAWKVRRVVDREDSSATEVASAVSADPAMAAKLVRSCNSPLYRGFSDVRNVREAVVRLGMRTTRQLVTVFAMREVFKTRRAPLQKEMEQLWRHSREVAALCWVLADHATRIDPEEALLAGLLHDIGVVPVLVQAEHHVNLFADDRNLHHAIDELRADVGCAVLENWAFPKAFVEAVRHAEDWHHECRETAPQLVDVVIVAQLHSMIGSSQNEGLPAFDQVPAWRRLGELELNASRSLQLLSEARERVDEVQKLLSIR”, with “not soluble”.
For “MGSDKIHHHHHHMSYELARVPRGEHHFHSVRVRTGDVLGLIEKTAFFELDDTLFVYPFYQRFSYQVNERHQEDGVSGSSPIHQHHSSVAASVRNYQPGDRFAALDWKTSARRSQLMTKEFEPSRSKNLFLLMDRFSSDAFEEVVSVTASILHSVLKNGAGAGLASIGKEKNIFPIQEGDQHFKHMLRHLAIAHCDAADPISRYAREELGKPSVRQADQVVVTGQLTEDMLHLAEIGGGRVTVILAKEKDAELSQAENVMIERMMKRQIRVRIMRGGRVSRVV”, the “soluble on expression in E. coli” value is “not soluble”.
Then “MSSERACMLCGIVQTTNEFNRDGCPNCQGIFEEAGVSTMECTSPSFEGLVGMCKPTKSWVAKWLSVDHSIAGMYAIKVDGRLPAEVVELLPHYKPRDGSGSATIWGVRCRPGKEKELIRKLLKKKFNLDRAMGKKKLKILSIFQRDNYTGRIYIEAPKQSVIEKFCNGVPDIYISQKLLIPVQELPLLLKPNLEHHHHHH”, with “soluble”; and “MASKLLQLKSKACEASKFVSKHGTTYYKQLLDKNKMYIQEPATIEKCNELSKQLLYTRLASIPGRSESFWKEVNHVKGLWKNRADLKVEDAGIAALFGLECFAWYCAGEIVGRGFTFTGYYP”, with “not soluble”.
For “TSKETFTHYQPQGNSDPAHTATAPGGLSAKAPAMTPLMLDTSSRKLVAWDGTTDGAAVGILAVAADQTSTTLTFYKSGTFRYEDVLWPEAASDETKKRTAFAGTAISIV”, the “soluble on expression in E. coli” value is given as “soluble”.
Then “MGSDKIHHHHHHMINQIYQLTKPKFINVKYQEEAIDQENHILIRPNYMAVCHADQRYYQGKRDPKILNKKLPMAMIHESCGTVISDPTGTYEVGQKVVMIPNQSPMQSDEEFYENYMTGTHFLSSGFDGFMREFVSLPKDRVVAYDAIEDTVAAITEFVSVGMHAMNRLLTLAHSKRERIAVIGDGSLAFVVANIINYTLPEAEIVVIGRHWEKLELFSFAKECYITDNIPEDLAFDHAFECCGGDGTGPAINDLIRYIRPQGTILMMGVSEYKVNLNTRDALEKGLILVGSSRSGRIDFENAIQMMEVKKFANRLKNILYLEEPVREIKDIHRVFATDLNTAFKTVFKWEV”, with “not soluble”; and “MSPDSCPLVKNILLLDSEGKRVAVKYYSDDWPTNAAKLSFEKYVFSKTSKTNARTEAEITLLDSNIIVYKFAQDLHFFVTGGENENELILASVLQGFFDAVALLLRSNVEKMEALENLDLIFLCLDEMVDQGVVLETDPNVIAGKVAMQSTEASGSLSEQTLTQALATAREHLARSLLT”, with “soluble”.
On to “MSLLTLAFNPQPRAKTYCSGPILRVSGVWAVKILYIVLDGAADSPTSPRKTLEEASKPNIDSLGSHAVCGMVYTVKPGVAPQSDYATLSLLGYNPDEYYPGRGPLEAFGAGIEMRRGDIALRANFATVDPGTLRIIDRRVGRSLTSREARELASAVDGMELEDGEGTALFRATIGHRGVLVLRHRSKPLSDAISNTDPAYERRGRFSVALEKYEPFIKLSNPLVEDEAAVLAARMLNEFTLKAVEILDSHPVNLAREKRGLLKANAILSRDAGGLPEEKPPSFQERFGLRGASIVEMVVERGISRYIGLDDIRVEIEGRAREEVYREEAARAVEALETHDLVYVHLKGPDEPGHDGSFEGKIRAVEDIDKHFFAPLLDRLSSAGLEPAFVVTSDHATPWDVGAHSGDPVPLMISHQSIQGSIGKFSETVCLRGRLGTIIGGYRIIPKTLSLLAGLEHHHHHH”, for which the “soluble on expression in E. coli” value is reported as “soluble”.
For “MAHHHHHHMPIKNVQEFLPNVRPDAFPVVVAVQAQASIPVGINLAELSCATRNVEYMPNNRIPSATMRLHEPTAVVMMHNSGALSIIGAASVSEARQAAELAARIIRKALNLNFSSLKFRVRSIAARFNVCSPIRLDKLAAYQLDPAMSIGVAKLQVSYEPERFNGCVLRLVGKSSRGDNQWSVSCSVFVTGKVQLMGARSMDELRFAFNAFVPIIAKNLDERKTA”, the “soluble on expression in E. coli” value is given as “not soluble”.
Next, “MSPSSATPARCSIARTLELLGDKWTLLIVRDAFWGHSRFSEFTRSLGVASDVLTARLAMLVDEGILERRAYRQEGSRERLEYVLTEKGKQLHVVIGALGQFGRDHLPRPGSTSPEYSDETTGEAVSLAFVTDDGRRVSASTLHVQQGTPAPAADPQG”: “not soluble”; “MGHHHHHHSHMSVMFDPDTAIYPFPPKPTPLSIDEKAYYREKIKRLLKERNAVMVAHYYTDPEIQQLAEETGGCISDSLEMARFGAKHPASTLLVAGVRFMGETAKILSPEKTILMPTLQAECSLDLGCPVEEFNAFCDAHPDRTVVVYANTSAAVKARADWVVTSSIAVELIDHLDSLGEKIIWAPDKHLGRYVQKQTGGDILCWQGACIVHDEFKTQALTRLQEEYPDAAILVHPESPQAIVDMADAVGSTSQLIAAAKTLPHQRLIVATDRGIFYKMQQAVPDKELLEAPTAGEGATCRSCAHCPWMAMNGLQAIAEALEQEGSNHEVHVDERLRERALVPLNRMLDFAATLRG”: “soluble”.
Then “MCFFLLCFLDSFRNRDTTQSDTDVIYPRDDPRASRSHQNFGFMDPPPRYEQIFKRGGGTPSVITTREAPSVTRSTGDGSLPPSYEQAALNARRESRPQLPQGTLREVPLTAIDMEHPAMSTPSSTVLDMESEITNITNHAQACVHRYDASHANEVTRTAVAVTTESPAPAQSTSNALPELEAPEGGPPGYDTISLHNETVSTR”, with “not soluble”.
Next, “MSLAARLIRSSRSNTFGIITDYVSTTPYSVDIVRGIQDWANANGKTILIANTGGSSEREVEIWKMFQSHRIDGVLYVTMYRRIVDPESGDVSIPTVMINCRPQTRELLPSIEPDDYQGARDLTRYLLERGHRRIGYIRLNPILLGAELRLDAFRRTTSEFGLTENDLSISLGMDGPVGAENNYVFAAATEMLKQDDRPTAIMSGNDEMAIQIYIAAMALGLRIPQDVSIVGFDDFRTVTMALKPELTTAALPYYDLGREGAKWLNDLIAGEKIYPGSRVVSCKLVERSSAAFGEGHHHHHH”: “soluble”; “MGSDKIHHHHHHMNEADVTKFVNNARKTLTDAQLLCSSANLRIVDIKKKLSSWQLSISKLNFLIVGLRQQGKFLYTILKEGIGTKLIQKQWNQAVLVVLVDEMKYWQYEITSKVQRLDGIVNELSISEKDDTDPSKLGDYISRDNVNLLNDKLKEVPVIERQIENIKLQYENMVRKVNKELIDTKLTDVTQKFQSKFGIDNLMETNVAEQFSRELTDLEKDLAEIMNSLTQHFDKTLLLQDKKIDNDEREELFKVVQGDDKELYNIFKTLHEVIDDVDKTILNLGQFLQAKIKEKTELHSEVSEIINDFNRNLEYLLIFKDISNLIDSFKNSCTQDIQTTKELCEFYDNFEESYGNLVLEAKRRKDVANRMKTILKDCEKQLQNLDAQDQEERQNFIAENGTYLPETIWPGKIDDFSSLYTLNYNVKNP”: “not soluble”.
